{"source": "paper PMC4108388", "about": "“The Structure of RdDddP from Roseobacter denitrificans Reveals That DMSP Lyases in the DddP-Family Are Metalloenzymes” (PLoS ONE, 2014)", "proteins": {"B1": {"name": "putative DddP DMSP lyase from Roseobacter denitrificans Och 114 (enzyme, UniProt Q166H0 1-447, looked up)", "chain": "MNRHFNATRKIDPSRGATLGDGSPNDMNRVEIGPTQLAFAEWHTARLDLPDLAAMRRFRHRRLTDHVVARGYAGLLMFDPLNIRYATDSTNMQLWNTHNPFRATLLCADGYMVMWDYKNSPFLSEFNPLVREQRAGADLFYFDRGDKVDVAADVFANEVRILLRDHAPGLRRLAVDKVMLHGLRALQAQGFEIMDGEEVTEKARSVKGPDEIRAMRCASHACEVAVRKMEDFARSKVGDGVTCENDIWAILHSENVRRGGEWIETRLLASGPRSNPWFQECGPRVCQRNEIISFDTDLVGAYGICTDISRSWWIGDQKPRADMIYAMQHGVEHIRTNMEMLKPGVMIPELSANTHVLDAKFQKQKYGCLMHGVGLCDEWPLVAYPDHAVAGAYDYPLEPGMTLCVEALISEEGGDFSIKLEDQVLITEDGYENLTKYPFDPALMGVE", "notes": "putative DMSP lyase DddP (RdDddP), Roseobacter denitrificans Och 114, YP_682809; 453 residues, 51 kDa; the gene was amplified with printed primers that run from the ATG start codon to the stop codon; residues 10-444 are described in the structure; Homodimer formed by crystallographic symmetry; A few vector residues probably remain at the N-terminus after thrombin cleavage (NheI cloning in pET28); …"}}, "biological_target": "the molecule itself", "test": "crystal structure; RdDddP crystallised in 4-4.5 M sodium chloride, 0.1 M Bis-Tris pH 6.5; space group P6(3)22, one molecule per asymmetric unit, dimer formed with a chain related by crystallographic symmetry; 2.15 Å native dataset", "data": [{"protein": "B1", "values": [{"measurement": "stoichiometry N", "result": 2}]}]}
